Data taken from patent US8840891 (RSR, dated 2014).
Where two headings read alike, the source gives them in different places. One block for each substance: values may come before it.

What was measured:
[1] = target: TSHR coated onto tubes (TSHR coated tubes) (human) (UniProt P16473); test: TSHR coated tubes
[2] = target: TSHR coated onto tubes (TSHR coated tubes) (human) (UniProt P16473); test: TSHR coated tubes, in presence of HBD pool
[3] = target: TSHR coated onto tubes (TSHR coated tubes) (human) (UniProt P16473); test: TSHR coated tubes, in the presence of HBD pool (Tables 4a, 4b)
[4] = target: TSHR coated onto tubes (TSHR coated tubes) (human) (UniProt P16473); test: TSHR coated tubes, in the presence of HBD pool (Table 5)
[5] = target: human TSHR with activating mutation A623I, on CHO cells (human) (UniProt P16473); test: cell-based or functional assay
[6] = target: human TSHR, wild type, expressed on CHO cells (human) (UniProt P16473); test: cell-based or functional assay
[7] = target: human TSHR, wild type, expressed on CHO cells (human) (UniProt P16473); test: cell-based or functional assay; remark: listed apart in the source
[8] = target: TSHR coated on ELISA plate wells (RSR Ltd) (human) (UniProt P16473); test: ELISA on TSHR-coated wells, inhibition of 5C9 IgG-biotin binding
[9] = target: TSHR coated on ELISA plate wells (RSR Ltd) (human) (UniProt P16473); test: ELISA on TSHR-coated wells, inhibition of TSH-biotin binding

Chain of M22 IgG, human monoclonal thyroid stimulating autoantibody (hMAb TSHR1) (VH): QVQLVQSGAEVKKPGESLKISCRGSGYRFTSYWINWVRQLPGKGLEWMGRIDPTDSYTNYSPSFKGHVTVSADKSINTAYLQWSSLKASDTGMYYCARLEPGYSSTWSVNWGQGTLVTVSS
Chain of M22 IgG, human monoclonal thyroid stimulating autoantibody (hMAb TSHR1) (V domain): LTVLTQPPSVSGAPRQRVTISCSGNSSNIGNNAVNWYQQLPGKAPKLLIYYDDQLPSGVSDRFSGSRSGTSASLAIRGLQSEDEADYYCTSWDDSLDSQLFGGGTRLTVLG

average % binding of labelled tracer [1]: 21% | % binding of labelled tracer [2]: 17% | % of labelled protein bound [3]: 20% | % of labelled protein bound [4]: 24%
Substance: M22 IgG (human monoclonal thyroid stimulating autoantibody, hMAb TSHR1)

basal cyclic AMP (buffer only 36.89); 9D33 IgG 0.001 µg/mL [5]: 29.6 pmol/mL | basal cyclic AMP (buffer only 36.89); 9D33 IgG 0.01 µg/mL [5]: 27.6 pmol/mL | basal cyclic AMP (buffer only 36.89); 9D33 IgG 0.1 µg/mL [5]: 31.8 pmol/mL | basal cyclic AMP (buffer only 36.89); 9D33 IgG 1 µg/mL [5]: 40.1 pmol/mL | % inhibition of basal cyclic AMP production; Exp 3; 9D33 IgG 0.001 µg/mL [6]: 12% | cyclic AMP; Exp 1; 9D33 1 µg/mL + TSH 3 ng/mL [6]: 28.7 pmol/mL | cyclic AMP; Exp 1; 9D33 10 µg/mL + TSH 3 ng/mL [6]: 23.8 pmol/mL | cyclic AMP; Exp 1; 9D33 10 µg/mL only [6]: 2.9 pmol/mL | cyclic AMP; Exp 2; 9D33 1 µg/mL + TSH 3 ng/mL [6]: 19 pmol/mL | cyclic AMP; Exp 2; 9D33 10 µg/mL + TSH 3 ng/mL [6]: 9.5 pmol/mL | cyclic AMP; Exp 2; 9D33 10 µg/mL only [6]: 1.6 pmol/mL | cyclic AMP; Exp 3; 9D33 0.01 µg/mL + TSH 3 ng/mL [6]: 47.1 pmol/mL | cyclic AMP; Exp 3; 9D33 0.1 µg/mL + TSH 3 ng/mL [6]: 35.1 pmol/mL | cyclic AMP; Exp 3; 9D33 1 µg/mL + TSH 3 ng/mL [6]: 27.8 pmol/mL | cyclic AMP; Exp 3; 9D33 10 µg/mL + TSH 3 ng/mL [6]: 13.5 pmol/mL | cyclic AMP; Exp 3; 9D33 100 µg/mL + TSH 3 ng/mL [6]: 10.5 pmol/mL | cyclic AMP; Exp 3; 9D33 100 µg/mL only [6]: 1.14 pmol/mL | cyclic AMP; Exp 4; 9D33 0.1 µg/mL + TSH 0.3 ng/mL [6]: 20.2 pmol/mL | cyclic AMP; Exp 4; 9D33 1 µg/mL + TSH 0.3 ng/mL [6]: 9.01 pmol/mL | cyclic AMP; Exp 4; 9D33 10 µg/mL + TSH 0.3 ng/mL [6]: 4.23 pmol/mL | cyclic AMP; Exp 4; 9D33 100 µg/mL + TSH 0.3 ng/mL [6]: 3.53 pmol/mL | cyclic AMP; Exp 4; 9D33 100 µg/mL only [6]: 0.99 pmol/mL | cyclic AMP; Exp 5; 9D33 0.1 µg/mL + TSH 0.3 ng/mL [6]: 14.7 pmol/mL | cyclic AMP; Exp 5; 9D33 1 µg/mL + TSH 0.3 ng/mL [6]: 6.38 pmol/mL | cyclic AMP; Exp 5; 9D33 5 µg/mL + TSH 0.3 ng/mL [6]: 3.71 pmol/mL | cyclic AMP; Exp 5; 9D33 10 µg/mL + TSH 0.3 ng/mL [6]: 3.57 pmol/mL | cyclic AMP; Exp 5; 9D33 10 µg/mL only [6]: 2.07 pmol/mL | cyclic AMP; Exp 1; 9D33 0.01 µg/mL + M22 3 ng/mL [7]: 47.5 pmol/mL | cyclic AMP; Exp 1; 9D33 0.1 µg/mL + M22 3 ng/mL [7]: 27.6 pmol/mL | cyclic AMP; Exp 1; 9D33 1 µg/mL + M22 3 ng/mL [7]: 5.25 pmol/mL | cyclic AMP; Exp 1; 9D33 10 µg/mL + M22 3 ng/mL [7]: 2.5 pmol/mL | cyclic AMP; Exp 1; 9D33 100 µg/mL + M22 3 ng/mL [7]: 2.13 pmol/mL | cyclic AMP; Exp 1; 9D33 100 µg/mL only [7]: 1.51 pmol/mL | cyclic AMP; Exp 2; 9D33 0.001 µg/mL + M22 3 ng/mL [7]: 79.1 pmol/mL | cyclic AMP; Exp 2; 9D33 0.01 µg/mL + M22 3 ng/mL [7]: 60.2 pmol/mL | cyclic AMP; Exp 2; 9D33 0.1 µg/mL + M22 3 ng/mL [7]: 38.7 pmol/mL | cyclic AMP; Exp 2; 9D33 1 µg/mL + M22 3 ng/mL [7]: 6.03 pmol/mL | cyclic AMP; Exp 2; 9D33 10 µg/mL + M22 3 ng/mL [7]: 0.67 pmol/mL | cyclic AMP; Exp 2; 9D33 100 µg/mL + M22 3 ng/mL [7]: 1.42 pmol/mL | cyclic AMP; Exp 2; 9D33 100 µg/mL only [7]: 1.76 pmol/mL | cyclic AMP; Exp 3; 9D33 0.001 µg/mL + M22 0.3 ng/mL [7]: 12.8 pmol/mL | cyclic AMP; Exp 3; 9D33 0.01 µg/mL + M22 0.3 ng/mL [7]: 15.2 pmol/mL | cyclic AMP; Exp 3; 9D33 0.1 µg/mL + M22 0.3 ng/mL [7]: 5.38 pmol/mL | cyclic AMP; Exp 3; 9D33 1 µg/mL + M22 0.3 ng/mL [7]: 0.83 pmol/mL | cyclic AMP; Exp 3; 9D33 10 µg/mL + M22 0.3 ng/mL [7]: 0.97 pmol/mL | cyclic AMP; Exp 3; 9D33 100 µg/mL + M22 0.3 ng/mL [7]: 1.03 pmol/mL | cyclic AMP; Exp 3; 9D33 100 µg/mL only [7]: 0.88 pmol/mL | cyclic AMP; Exp 4; 9D33 0.001 µg/mL + M22 0.3 ng/mL [7]: 43.2 pmol/mL | cyclic AMP; Exp 4; 9D33 0.01 µg/mL + M22 0.3 ng/mL [7]: 38.9 pmol/mL | cyclic AMP; Exp 4; 9D33 0.1 µg/mL + M22 0.3 ng/mL [7]: 27.6 pmol/mL | cyclic AMP; Exp 4; 9D33 1 µg/mL + M22 0.3 ng/mL [7]: 2.66 pmol/mL | cyclic AMP; Exp 4; 9D33 10 µg/mL + M22 0.3 ng/mL [7]: 1.25 pmol/mL | cyclic AMP; Exp 4; 9D33 100 µg/mL + M22 0.3 ng/mL [7]: 2 pmol/mL | cyclic AMP; Exp 4; 9D33 100 µg/mL only [7]: 2.38 pmol/mL
Substance: 9D33 IgG, mouse monoclonal antibody to the TSHR with blocking activity

% inhibition [8]: 28% | % inhibition [9]: 15%
Substance: M22 IgG, human monoclonal thyroid stimulating autoantibody (hMAb TSHR1)
